Results: publication PMC9352680, “A comprehensive thermodynamic model for RNA binding by the Saccharomyces cerevisiae Pumilio protein PUF4”
Positions count from the first letter of the chain named. In names and notes the source's numbering stands.

Target: T1, PUF4 RNA-binding domain (Saccharomyces cerevisiae, UniProt P25339 537-888)
T1 sequence: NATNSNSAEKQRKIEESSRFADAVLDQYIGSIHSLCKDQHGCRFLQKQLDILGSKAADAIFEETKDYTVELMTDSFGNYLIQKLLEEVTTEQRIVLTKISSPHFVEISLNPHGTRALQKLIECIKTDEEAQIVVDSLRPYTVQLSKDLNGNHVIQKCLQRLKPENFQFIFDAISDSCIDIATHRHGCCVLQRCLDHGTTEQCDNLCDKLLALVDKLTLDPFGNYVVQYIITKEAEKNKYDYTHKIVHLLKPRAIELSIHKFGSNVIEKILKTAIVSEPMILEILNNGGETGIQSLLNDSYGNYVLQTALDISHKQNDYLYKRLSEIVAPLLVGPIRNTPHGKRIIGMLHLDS
Test: Mg; RNA-MaP; 20 mM Na-HEPES pH 7.4, 30 mM KOAc, 0.75 mM MgCl2, 0.1% Tween-20, 5% glycerol, 0.1 mg/mL BSA, 2 mM DTT; 25 C; 0.0125-409.6 nM protein
Details: tags: N-His6-TEV cleaved; C-SNAP kept, Cy3B-labelled; label: tethered on chip by stalled RNA polymerase

B1: Ic_S4_P5E.1_K5.1_C5.1_H5.1_A5.1_[T5A]_[T6A]_[A7T]_F5.1_[T9C]_[A10T]_T5.1 (ssRNA)
RNA: UUUGACAACUGAUCGUUCUUUCUUGUAAAUUCUUUCUUUCUCGAUCAGUUGUCUUU
Q: For B1, which Kd is on record?
A: The Kd was 28.2 nM.

B2: Ic_S4_P5E.1_K5.1_C5.1_H5.1_A5.1_[T5A]_[T6A]_[A7C]_F5.1_[T8C]_[A10C]_T5.1 (ssRNA)
RNA: B1 RNA with U30C, U31C, C32U, U33C
Q: For B2, which Kd is on record?
A: The Kd was 233 nM.

B3: Ic_S4_P5E.1_K5.1_C5.1_H5.1_A5.1_[A7G]_F5.1_[T8G]_T5.1 (ssRNA)
RNA: B1 RNA with A28U, A29U, U30G, U31G, C32U, U33A
Q: How did the Kd turn out when B3 was run?
A: The Kd was 58.8 nM.

B4: Ic_S4_P5E.1_K5.1_C5.1_H5.1_A5.1_[T5G]_[T6C]_[A7T]_F5.1_[A10T]_T5.1 (ssRNA)
RNA: B1 RNA with A28G, A29C, C32U
Q: Which Kd does the source give for B4 here?
A: Its Kd is 34.7 nM.

B5: Ic_S4_P5E.1_K5.1_C5.1_H5.1_A5.1_[T6C]_[A7C]_F5.1_[T8C]_[T9C]_[A10G]_T5.1 (ssRNA)
RNA: B1 RNA with A28U, A29C, U30C, U31C, U33G
Q: For B5, which Kd is on record?
A: Its Kd is 674 nM.

B6: Ic_S4_P5E.1_K5.1_C5.1_H5.1_A5.1_[T5G]_[T6C]_[A7C]_F5.1_[T8C]_T5.1 (ssRNA)
RNA: B1 RNA with A28G, A29C, U30C, U31C, C32U, U33A
Q: For B6, which Kd is on record?
A: Its Kd is 19.6 nM.

Q: UCUCUUUGUACAUUUUCUCUU (ssRNA) [Ic_S1_P4E.1_K4.1_C4.1_H4.1_A4.1_[T5C]_F4.1_[A9T]_T4.1] was tested. Which Kd did it give?
A: The Kd was 5.25 nM.

B7: Ic_S4_P5E.1_K5.1_C5.1_H5.1_A5.1_[T5C]_F5.1_[T8C]_[T9A]_[A10C]_T5.1 (ssRNA)
RNA: B1 RNA with A28C, A29U, U30A, U31C, C32A, U33C
Q: B7 was tested. Which Kd did it give?
A: The Kd was 540 nM.

B8: Ic_S4_P5E.1_K5.1_C5.1_H5.1_A5.1_[T5A]_[T6C]_[A7C]_F5.1_[T9A]_[A10T]_T5.1 (ssRNA)
RNA: B1 RNA with A29C, U30C, C32A
Q: How did the Kd turn out when B8 was run?
A: The Kd was 5.91 nM.

B9: Ic_S4_P5E.1_K5.1_C5.1_H5.1_A5.1_[T5A]_F5.1_[A10G]_T5.1 (ssRNA)
RNA: B1 RNA with A29U, U30A, C32U, U33G
Q: How did the Kd turn out when B9 was run?
A: Its Kd is 24.3 nM.

B10: Ic_S4_P5E.1_K5.1_C5.1_H5.1_A5.1_[T5G]_[A7C]_F5.1_[T8A]_[T9C]_[A10T]_T5.1 (ssRNA)
RNA: B1 RNA with A28G, A29U, U30C, U31A
Q: How did the Kd turn out when B10 was run?
A: The Kd was 1040 nM.

B11: Ic_S4_P5E.1_K5.1_C5.1_H5.1_A5.1_[T5A]_[T6C]_F5.1_[T9G]_[A10C]_T5.1 (ssRNA)
RNA: B1 RNA with A29C, U30A, C32G, U33C
Q: How did the Kd turn out when B11 was run?
A: Its Kd is 25.7 nM.

B12: Ic_S4_P5E.1_K5.1_C5.1_H5.1_A5.1_[T5A]_[T6A]_[A7C]_F5.1_[T9G]_[A10G]_T5.1 (ssRNA)
RNA: B1 RNA with U30C, C32G, U33G
Q: Which Kd does the source give for B12 here?
A: Its Kd is 280 nM.

B13: Ic_S4_P5E.1_K5.1_C5.1_H5.1_A5.1_[T5A]_[T6C]_[A7T]_F5.1_[T8A]_[T9G]_[A10T]_T5.1 (ssRNA)
RNA: B1 RNA with A29C, U31A, C32G
Q: B13 was tested. Which Kd did it give?
A: Its Kd is 586 nM.

B14: Ic_S4_P5E.1_K5.1_C5.1_H5.1_A5.1_[T5C]_[T6G]_[A7T]_F5.1_[T8G]_[T9C]_[A10C]_T5.1 (ssRNA)
RNA: B1 RNA with A28C, A29G, U31G, U33C
Q: Which Kd does the source give for B14 here?
A: The Kd was 125 nM.

B15: Ic_S4_P5E.1_K5.1_C5.1_H5.1_A5.1_[T5C]_[T6G]_[A7T]_F5.1_[T8C]_[T9G]_[A10T]_T5.1 (ssRNA)
RNA: B1 RNA with A28C, A29G, U31C, C32G
Q: With B15 as the binder, how does the Kd read?
A: The Kd was 167 nM.

B16: Ic_S4_P5E.1_K5.1_C5.1_H5.1_A5.1_[T5A]_[T6A]_[A7T]_F5.1_[T8C]_[T9C]_[A10G]_T5.1 (ssRNA)
RNA: B1 RNA with U31C, U33G
Q: With B16 as the binder, how does the Kd read?
A: Its Kd is 254 nM.

Q: For UCUCUUUGUAAAUUUUCUCUU (ssRNA) [Ic_S1_P4E.1_K4.1_C4.1_H4.1_A4.1_[T5A]_F4.1_[A9T]_T4.1], which Kd is on record?
A: Its Kd is 18.3 nM.

B17: Ic_S4_P5E.1_K5.1_C5.1_H5.1_A5.1_[T5G]_[T6C]_[A7G]_F5.1_[T8C]_[T9G]_[A10T]_T5.1 (ssRNA)
RNA: B1 RNA with A28G, A29C, U30G, U31C, C32G
Q: How did the Kd turn out when B17 was run?
A: Its Kd is 1620 nM.

B18: Ic_S4_P5E.1_K5.1_C5.1_H5.1_A5.1_[T5A]_[A7T]_F5.1_[T8A]_[T9G]_[A10C]_T5.1 (ssRNA)
RNA: B1 RNA with A29U, U31A, C32G, U33C
Q: B18 was tested. Which Kd did it give?
A: Its Kd is 338 nM.

B19: Ic_S4_P5E.1_K5.1_C5.1_H5.1_A5.1_[T5C]_F5.1_[T8C]_[T9G]_[A10C]_T5.1 (ssRNA)
RNA: B1 RNA with A28C, A29U, U30A, U31C, C32G, U33C
Q: B19 was tested. Which Kd did it give?
A: The Kd was 499 nM.

B20: Ic_S4_P5E.1_K5.1_C5.1_H5.1_A5.1_[T5A]_[T6C]_[A7C]_F5.1_[T9A]_[A10G]_T5.1 (ssRNA)
RNA: B1 RNA with A29C, U30C, C32A, U33G
Q: Which Kd does the source give for B20 here?
A: Its Kd is 48.7 nM.

B21: Ic_S4_P5E.1_K5.1_C5.1_H5.1_A5.1_[A7G]_F5.1_[T9C]_[A10T]_T5.1 (ssRNA)
RNA: B1 RNA with A28U, A29U, U30G
Q: Which Kd does the source give for B21 here?
A: Its Kd is 134 nM.

B22: Ic_S4_P5E.1_K5.1_C5.1_H5.1_A5.1_[T6A]_[A7C]_F5.1_[T8C]_[T9A]_[A10T]_T5.1 (ssRNA)
RNA: B1 RNA with A28U, U30C, U31C, C32A
Q: How did the Kd turn out when B22 was run?
A: Its Kd is 15.4 nM.

B23: Ic_S4_P5E.1_K5.1_C5.1_H5.1_A5.1_[T6C]_[A7G]_F5.1_[T8C]_[T9C]_[A10G]_T5.1 (ssRNA)
RNA: B1 RNA with A28U, A29C, U30G, U31C, U33G
Q: For B23, which Kd is on record?
A: The Kd was 1730 nM.

B24: Ic_S4_P5E.1_K5.1_C5.1_H5.1_A5.1_[T5C]_[T6A]_[A7T]_F5.1_[T8G]_[A10T]_T5.1 (ssRNA)
RNA: B1 RNA with A28C, U31G, C32U
Q: For B24, which Kd is on record?
A: Its Kd is 6.77 nM.

B25: Ic_S4_P5E.1_K5.1_C5.1_H5.1_A5.1_[T5A]_[T6C]_[A7G]_F5.1_[T9A]_[A10G]_T5.1 (ssRNA)
RNA: B1 RNA with A29C, U30G, C32A, U33G
Q: How did the Kd turn out when B25 was run?
A: Its Kd is 114 nM.

B26: Ic_S4_P5E.1_K5.1_C5.1_H5.1_A5.1_[T5C]_[T6A]_[A7C]_F5.1_[T8C]_[A10G]_T5.1 (ssRNA)
RNA: B1 RNA with A28C, U30C, U31C, C32U, U33G
Q: With B26 as the binder, how does the Kd read?
A: Its Kd is 81 nM.

Q: UCUCUUUGUAUGUUGUCUCUU (ssRNA) [Ib_S1_P4E.1_K4.1_C4.1_H4.1_A4.1_[A6G]_F4.1_[A9G]_T4.1] was tested. Which Kd did it give?
A: Its Kd is 218 nM.
